Data reported in patent US20140141003A1 (Bayer, published 2014).
Numbering of substitutions follows the chain as printed. Read-outs that look alike come from different tables or passages of the source. Values belong to the binder of their own block, whether it stands above or below them.

Legend:
[1] = molecular target: human PRLR expressed on cells (human) (UniProt P16471); assay: flow cytometry on BaF3-human PRLR cells, IgG1 format
[2] = molecular target: T1, rhesus monkey PRLR expressed on cells (rhesus monkey, UniProt F7HIU9 25-619); assay: cell-based or functional assay
T1 sequence: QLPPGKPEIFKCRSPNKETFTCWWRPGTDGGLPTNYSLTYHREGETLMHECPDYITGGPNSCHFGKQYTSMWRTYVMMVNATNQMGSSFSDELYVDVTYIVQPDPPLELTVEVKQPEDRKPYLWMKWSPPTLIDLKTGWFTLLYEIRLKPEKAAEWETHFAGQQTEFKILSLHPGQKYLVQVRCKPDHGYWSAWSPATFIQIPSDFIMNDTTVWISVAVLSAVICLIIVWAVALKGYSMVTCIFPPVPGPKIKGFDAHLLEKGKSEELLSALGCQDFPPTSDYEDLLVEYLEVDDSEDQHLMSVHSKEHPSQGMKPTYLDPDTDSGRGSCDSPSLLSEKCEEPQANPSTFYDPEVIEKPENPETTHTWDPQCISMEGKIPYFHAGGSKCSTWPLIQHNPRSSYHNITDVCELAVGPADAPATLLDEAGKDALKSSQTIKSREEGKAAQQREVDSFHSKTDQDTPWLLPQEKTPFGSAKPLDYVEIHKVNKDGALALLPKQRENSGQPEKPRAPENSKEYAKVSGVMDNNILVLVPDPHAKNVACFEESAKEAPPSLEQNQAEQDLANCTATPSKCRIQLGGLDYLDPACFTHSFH

[3] = molecular target: human PRLR expressed on cells (human) (UniProt P16471); assay: flow cytometry on human T47D breast cancer cells (natural PRLR), IgG1 format
[4] = molecular target: human PRLR expressed on cells (human) (UniProt P16471); assay: flow cytometry on HEK293-human PRLR cells, IgG1 format
[5] = molecular target: T1, rhesus monkey PRLR expressed on cells; assay: flow cytometry on BaF3-rhesus PRLR cells, IgG1 format
[6] = molecular target: human PRLR expressed on cells (human) (UniProt P16471); assay: cell-based or functional assay
[7] = molecular target: murine PRLR expressed on cells (mouse) (UniProt Q08501); assay: cell-based or functional assay
[8] = molecular target: T2, extracellular domain of murine PRLR (soluble, monomeric) (mouse, UniProt Q08501 20-229); assay: SPR (Biacore T100), antibody captured via anti-human IgG Fc, monovalent ECD as analyte, Example 13
T2 construct: Expressed in HEK293 cells; also called Murine ECD PRLR; Mouse PRLR
T2 sequence: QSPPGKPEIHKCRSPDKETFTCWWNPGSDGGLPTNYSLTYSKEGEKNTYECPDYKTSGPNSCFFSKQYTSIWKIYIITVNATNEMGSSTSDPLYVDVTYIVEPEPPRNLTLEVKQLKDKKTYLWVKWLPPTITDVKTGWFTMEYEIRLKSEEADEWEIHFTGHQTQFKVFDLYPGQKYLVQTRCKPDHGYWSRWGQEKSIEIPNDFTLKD
Experimental: (§1) Antibodies were immobilized onto a CM5 sensor chip through an indirect capturing reagent, anti-human IgG Fc. […] Approximately 5000 RU monoclonal mouse anti-human IgG (Fc) antibody were immobilized per cell. Each test antibody was injected at a concentration of 5 μg/ml at 10 μl/min for 10 sec to reach a capturing level of approximately 200 to 600 RU. […] Sensograms were generated after in-line reference cell correction followed by buffer sample subtraction. The dissociation equilibrium constant (KD) was calculated based on the ratio of association (kon) and dissociation rated (koff=kd) constants, obtained by fitting sensograms with a first order 1:1 binding model using BiaEvaluation Software (see Table 7).

[9] = molecular target: T3, extracellular domain of human PRLR (soluble, monomeric) (human, UniProt P16471 25-234); assay: as above
T3 construct: also called Human ECD PRLR; ECD-PRLR
T3 sequence: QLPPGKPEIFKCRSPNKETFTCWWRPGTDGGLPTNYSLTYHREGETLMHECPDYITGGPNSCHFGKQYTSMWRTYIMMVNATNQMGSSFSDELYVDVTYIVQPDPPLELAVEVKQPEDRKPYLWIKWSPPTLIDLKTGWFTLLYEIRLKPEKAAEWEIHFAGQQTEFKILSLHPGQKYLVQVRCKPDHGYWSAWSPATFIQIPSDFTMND
Experimental: as §1

[10] = molecular target: T4, extracellular domain of rhesus and cynomolgus monkey PRLR (Fc-His removed by Factor Xa digestion) (rhesus and cynomolgus monkey, UniProt P16471 25-234 (human entry)); assay: as above
T4 construct: the fusion part was removed by Factor Xa before SPR; also called Rhesus/Cynomolgus PRLR; Rhesus and cynomolgus monkey ECD PRLR
T4 chain: T3 sequence with I76V, A110T, I125M, I158T, T207I
Experimental: as §1

[11] = molecular target: murine PRLR expressed on cells (mouse) (UniProt Q08501); assay: flow cytometry on HEK293-murine PRLR cells, IgG1 format
[12] = molecular target: murine PRLR expressed on cells (mouse) (UniProt Q08501); assay: flow cytometry on BaF3-mouse PRLR cells, IgG1 format
[13] = molecular target: human PRLR expressed on cells (human) (UniProt P16471); assay: cell-based or functional assay; remark: listed apart in the source
[14] = molecular target: murine PRLR expressed on cells (mouse) (UniProt Q08501); assay: cell-based or functional assay; remark: listed apart in the source
[15] = molecular target: T1, rhesus monkey PRLR expressed on cells; assay: flow cytometry on Ba/F cells expressing rhesus monkey PRLR, Example 9
Experimental: The cells were harvested, centrifuged and resuspended at approximately 2×10⁶ cells/ml in 1×PBS containing 3% FBS and 0.05% sodium azide (FACS buffer). […] For secondary antibody and autofluorescence controls, 50 μl FACS buffer was added to appropriate wells. 50 μl of cell suspension was added to each sample well. Samples were incubated at 4° C. for one hour, washed twice with cold FRCS buffer and resuspended in FACS buffer containing PE-conjugated goat anti-human IgG at a 1:100 dilution. Following a 30 min incubation at 4° C., cells were washed twice with cold FACS buffer, resuspended in FACS buffer containing 1 mg/ml propidium iodide (Invitrogen, San Diego, Calif.) and analyzed by flow cytometry.

[16] = molecular target: human PRLR expressed on cells (human) (UniProt P16471); assay: flow cytometry on HEK293 cells expressing human PRLR, Example 9
[17] = molecular target: T2, extracellular domain of murine PRLR …; assay: SPR (Biacore T100), antibody captured via anti-human IgG Fc, monovalent ECD as analyte, Example 10
Experimental: (§2) Antibodies were immobilized onto a CM5 sensor chip through an indirect capturing reagent, anti-human IgG Fc. […] Approximately 5000 RU monoclonal mouse anti-human IgG (Fc) antibody were immobilized per cell. […] Sensograms were generated after in-line reference cell correction followed by buffer sample subtraction. The dissociation equilibrium constant (KD) was calculated based on the ratio of association (kon) and dissociation rated (koff=kd) constants, obtained by fitting sensograms with a first order 1:1 binding model using BiaEvaluation Software.

[18] = molecular target: T3, extracellular domain of human PRLR …; assay: as above
Experimental: as §2

[19] = molecular target: T4, extracellular domain of rhesus and …; assay: as above
Experimental: as §2

[20] = molecular target: T3, extracellular domain of human PRLR …; assay: SPR: ECD-PRLR captured by immobilized Mat3 or HE06642, human PRL passed over

B2: antibody HE06642 (isotype not stated) (antibody, V domains shown)
VH: EVQLVESGGGLVQPGGSLRLSCAVSGFTFSSYGMSWVRQAPGKGLEWVATVSSGGTYTYYPDSVKGRFTISRDNSKNTLYLQMNSLRAEDTAVYYCARHRGNYYATYYYAMDYWGQGTLVTVSS
VL: DIVLTQSPDSLAVSLGERATINCKASKSVSTSGYTYMHWYQQKPGQPPKLLIYLASNRESGVPDRFSGSGSGTDFTLTISPVQAEDVATYYCQHSGELPPSFGQGTKLEIKR
notes: Kappa light chain; also called he06.642-2 of WO 2008/022295
Kd [8]: 15 nM | koff [8]: 0.0091 s⁻¹ | Kd [9]: 0.8 nM | koff [9]: 0.000533 s⁻¹ | Kd [10]: 17 nM | koff [10]: 0.00579 s⁻¹

B3: antibody Mat3 in IgG1 format (antibody, V domains shown)
VH: EVQLLESGGGLVQPGGSLRLSCAASGFTFSSYWMHWVRQAPGKGLEWVSDIARLSSYTNYADSVKGRFTISRDNSKNTLYLQMNSLRAEDTAVYYCARGLDARRMDYWGQGTLVTVSS
VL: QSVLTQPPSASGTPGQRVTISCTGSSSNIGAGYVVHWYQQLPGTAPKLLIYRNNQRPSGVPDRFSGSKSGTSASLAISGLRSEDEADYYCAAWDDSLNGWLFGGGTKLTVLG
notes: also called Mat3 IgG1
EC50 [11]: 0.1 nM | EC50 [1]: 0.1 nM | EC50 [12]: 0.2 nM | IC50, inhibition of prolactin-induced proliferation of BaF3 cells stably transfected with the rhesus prolactin receptor [2]: 4.6 nM | EC50 [3]: 0.4 nM | EC50 [4]: 0.8 nM | EC50 [5]: 1.2 nM | % inhibition of prolactin-induced proliferation at 1 µg/ml (=6.7 nM) [13]: 100% | IC50, inhibition of LHRE luciferase reporter gene activity in HEK293 cells stably transfected with human PRLR [13]: 0.5 nM | IC50, inhibition of prolactin-induced proliferation of BaF3 cells stably transfected with human prolactin receptor [13]: 0.7 nM | IC50, inhibition of LHRE luciferase reporter gene activity in HEK293 cells stably transfected with murine PRLR [14]: 1.3 nM | IC50, inhibition of prolactin-induced proliferation of BaF3 cells stably transfected with the murine prolactin receptor [14]: 3 nM

B5: antibody Mat3 as human IgG molecule (isotype not stated) (antibody, V domains shown)
VH: B3 VH
VL: B3 VL
notes: Lambda light chain; also called neutralizing prolactin receptor antibody Mat3
Kd [17]: 0.4 nM | koff [17]: 0.00021 s⁻¹ | Kd [18]: 0.9 nM | koff [18]: 0.00044 s⁻¹ | Kd [19]: 7.1 nM | koff [19]: 0.0011 s⁻¹ | Kd [8]: 0.4 nM | koff [8]: 0.000164 s⁻¹ | Kd [9]: 1.3 nM | koff [9]: 0.000414 s⁻¹ | Kd [10]: 9.6 nM | koff [10]: 0.00102 s⁻¹

More lines, now with the values ahead:

EC50 [1]: 0.2 nM | IC50, inhibition of prolactin-induced proliferation of BaF3 cells stably transfected with the rhesus prolactin receptor [2]: 206 nM | EC50 [3]: 0.8 nM | EC50 [4]: 1.6 nM | EC50 [5]: 3.2 nM | IC50, inhibition of LHRE luciferase reporter gene activity in HEK293 cells stably transfected with human PRLR [6]: 4.6 nM | IC50, inhibition of prolactin-induced proliferation of BaF3 cells stably transfected with human prolactin receptor [6]: 4.2 nM | IC50, inhibition of LHRE luciferase reporter gene activity in HEK293 cells stably transfected with murine PRLR [7]: > 1330 nM
B1: antibody HE06642 as IgG1 molecule (antibody, V domains shown)
VH: B2 VH
VL: B2 VL

EC50 [15]: 2.94 nM | EC50 [16]: 0.53 nM
B4: antibody Mat3 as human IgG2 molecule (antibody, V domains shown)
VH: B3 VH
VL: B3 VL
notes: also called IgG2 Mat3

binding result [20]: binds
B6: human prolactin (ligand, UniProt P01236 29-227, looked up)
chain: LPICPGGAARCQVTLRDLFDRAVVLSHYIHNLSSEMFSEFDKRYTHGRGFITKAINSCHTSSLATPEDKEQAQQMNQKDFLSLIVSILRSWNEPLYHLVTEVRGMQEAPEAILSKAVEIEEQTKRLLEGMELIVSQVHPETKENEIYPVWSGLPSLQMADEESRLSAYYNLLHCLRRDSHKIDNYLKLLKCRIIHNNNC
notes: also called PRL; Human PRL
